No end group written: not given here.
T1: cynomolgus GalR2 (Macaca fascicularis, UniProt A0A2K5WWW1 1-386)
T1 sequence: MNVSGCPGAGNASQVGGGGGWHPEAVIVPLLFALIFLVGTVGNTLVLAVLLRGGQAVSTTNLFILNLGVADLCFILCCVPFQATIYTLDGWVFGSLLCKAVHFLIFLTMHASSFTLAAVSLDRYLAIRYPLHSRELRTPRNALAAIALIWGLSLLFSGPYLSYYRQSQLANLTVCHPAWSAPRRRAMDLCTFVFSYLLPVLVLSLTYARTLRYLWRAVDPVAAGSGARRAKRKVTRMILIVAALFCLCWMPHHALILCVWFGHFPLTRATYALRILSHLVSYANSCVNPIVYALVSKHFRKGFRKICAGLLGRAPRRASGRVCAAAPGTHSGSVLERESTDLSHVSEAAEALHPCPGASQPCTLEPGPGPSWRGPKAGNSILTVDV

T2: mouse GalR2 (Mus musculus, UniProt O88854 1-371)
T2 sequence (looked up): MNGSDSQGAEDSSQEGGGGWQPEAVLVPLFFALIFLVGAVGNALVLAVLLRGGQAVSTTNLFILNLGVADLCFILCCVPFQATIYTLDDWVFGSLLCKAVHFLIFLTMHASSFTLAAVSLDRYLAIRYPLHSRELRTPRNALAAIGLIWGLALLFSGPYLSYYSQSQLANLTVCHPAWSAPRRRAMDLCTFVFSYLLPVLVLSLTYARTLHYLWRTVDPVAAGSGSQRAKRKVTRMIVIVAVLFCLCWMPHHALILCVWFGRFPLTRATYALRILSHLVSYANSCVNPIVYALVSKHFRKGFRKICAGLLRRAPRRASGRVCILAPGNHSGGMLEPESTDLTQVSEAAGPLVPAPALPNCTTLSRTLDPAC

T3: rat GalR2 (Rattus rattus, UniProt O08726 1-372)
T3 sequence (looked up): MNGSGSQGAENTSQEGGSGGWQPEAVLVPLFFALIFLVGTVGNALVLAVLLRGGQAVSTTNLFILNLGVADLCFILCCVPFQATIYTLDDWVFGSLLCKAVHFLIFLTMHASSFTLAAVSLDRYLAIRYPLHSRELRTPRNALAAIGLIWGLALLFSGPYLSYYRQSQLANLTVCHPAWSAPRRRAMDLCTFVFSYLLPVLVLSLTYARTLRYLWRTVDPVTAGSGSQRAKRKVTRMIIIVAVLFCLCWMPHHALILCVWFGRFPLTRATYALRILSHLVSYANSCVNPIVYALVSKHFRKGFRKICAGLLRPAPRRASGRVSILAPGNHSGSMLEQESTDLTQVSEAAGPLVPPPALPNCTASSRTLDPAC

T4: human GalR1 (human, UniProt P47211 1-349)
T4 sequence (looked up): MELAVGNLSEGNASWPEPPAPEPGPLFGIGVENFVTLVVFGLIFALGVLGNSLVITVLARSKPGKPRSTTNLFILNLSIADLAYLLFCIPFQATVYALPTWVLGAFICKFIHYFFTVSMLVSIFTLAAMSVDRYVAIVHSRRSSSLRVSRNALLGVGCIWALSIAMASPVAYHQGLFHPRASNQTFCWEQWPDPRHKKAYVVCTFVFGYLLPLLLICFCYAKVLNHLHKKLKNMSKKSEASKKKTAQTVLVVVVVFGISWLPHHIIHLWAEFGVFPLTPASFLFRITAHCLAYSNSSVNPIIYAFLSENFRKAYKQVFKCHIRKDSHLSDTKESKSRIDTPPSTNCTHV

T5: human GalR2 (human, UniProt O43603 1-387)
T5 sequence (looked up): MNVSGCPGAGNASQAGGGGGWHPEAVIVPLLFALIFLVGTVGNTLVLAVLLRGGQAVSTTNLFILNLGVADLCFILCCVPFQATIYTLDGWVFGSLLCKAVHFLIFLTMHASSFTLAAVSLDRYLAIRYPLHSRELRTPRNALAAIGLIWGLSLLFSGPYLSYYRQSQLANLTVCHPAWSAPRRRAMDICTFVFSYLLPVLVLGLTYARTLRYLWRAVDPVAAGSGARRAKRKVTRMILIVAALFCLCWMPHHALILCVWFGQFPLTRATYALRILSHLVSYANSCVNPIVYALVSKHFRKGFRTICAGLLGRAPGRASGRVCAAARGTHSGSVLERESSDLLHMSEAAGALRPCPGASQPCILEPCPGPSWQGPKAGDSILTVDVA


biological target: T1, cynomolgus GalR2; assay: cell-based or functional assay

Binder | calcium assay activity (quantity not given)
GWTLNSAGYLLGPHAVGNHRSFSDKNGLTS [Galanin 1-30 (human)] | 9.6

biological target: T2, mouse GalR2; assay: cell-based or functional assay

Binder | calcium assay activity (quantity not given)
GWTLNSAGYLLGPHAVGNHRSFSDKNGLTS [Galanin 1-30 (human)] | 9

biological target: T3, rat GalR2; assay: cell-based or functional assay

Binder | calcium assay activity (quantity not given)
GWTLNSAGYLLGPHAVGNHRSFSDKNGLTS [Galanin 1-30 (human)] | 8.8

biological target: T4, human GalR1; assay: cell-based or functional assay

Binder | Beta Arrestin IA (%) | Beta Arrestin pEC50 [pEC50] | cAMP IA (%) | cAMP pEC50 [pEC50]
WTLNSAGYLLGPHAIDNHRSFHDKYGLA [Galanin 2-29 (rat)] | 67.2 | 8.09 | 90.8 | 8.6
GWTLNSAGYLLGPQPPGFSPFR [M617] | 99 | 8.68 | 90.1 | 10
WTLNSAGYLLGPKKKKK (also: PEG (dPEG24) on one lysine, site not given here) [Nax409-9] | 7 |  | 66 | 6.5
RGRGNWTLNSAGYLLGPVLPPPALALA [M1145] | 24.5 |  | 86.7 | 6.8

biological target: T5, human GalR2; assay: cell-based or functional assay

Binder | Beta Arrestin pEC50 [pEC50] | Calcium pEC50 [pEC50]
WTLNSAGYLLGPHAIDNHRSFHDKYGLA [Galanin 2-29 (rat)] | 8.1 | 9.2
GWTLNSAGYLLGPQPPGFSPFR [M617] | 8.4 | 9.6
WTLNSAGYLLGPKKKKK (also: PEG (dPEG24) on one lysine, site not given here) [Nax409-9] | 5.8 | 6.9
RGRGNWTLNSAGYLLGPVLPPPALALA [M1145] | 7.9 | 8.9
WTLNSAGYLL [Galanin 2-11] | 6.4 | 7.6
GWTLNSAGYLLGPHA [Galanin 1-15] | 7.2 | 8.6
